Patent US20200325232A1 (INNATE PHARMA, published 2020)

T1: CD19 (UniProt P15391 20-556, limits assumed)
T1 sequence (looked up): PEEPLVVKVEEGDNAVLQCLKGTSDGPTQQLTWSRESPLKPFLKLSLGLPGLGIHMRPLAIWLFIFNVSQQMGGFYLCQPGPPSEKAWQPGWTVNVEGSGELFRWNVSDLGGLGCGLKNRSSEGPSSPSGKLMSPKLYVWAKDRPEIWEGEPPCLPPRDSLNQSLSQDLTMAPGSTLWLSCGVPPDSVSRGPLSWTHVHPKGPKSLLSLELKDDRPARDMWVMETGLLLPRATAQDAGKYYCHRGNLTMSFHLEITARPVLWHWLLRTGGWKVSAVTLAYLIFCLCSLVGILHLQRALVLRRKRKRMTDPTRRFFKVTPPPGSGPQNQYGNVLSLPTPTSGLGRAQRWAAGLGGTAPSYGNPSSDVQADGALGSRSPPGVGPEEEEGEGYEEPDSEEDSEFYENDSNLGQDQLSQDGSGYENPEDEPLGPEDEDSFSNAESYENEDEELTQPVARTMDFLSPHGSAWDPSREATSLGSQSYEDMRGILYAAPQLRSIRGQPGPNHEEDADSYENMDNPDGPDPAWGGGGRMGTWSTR


Assays:
[1] = molecular target: T1, CD19; test: cell-based or functional assay
[2] = molecular target: T2, human NKp46 (human, UniProt O76036 22-304); test: flow cytometry screen of Example 1 on a cell line expressing human NKp46
T2 construct: The screen used a cell line expressing 'the human NKp46 construct' at the cell surface; In the lysis assays NKp46 is on fresh human NK cells; also called huNKp46; NKp46 receptor
T2 sequence (O76036 22-304 Q82K limits assumed): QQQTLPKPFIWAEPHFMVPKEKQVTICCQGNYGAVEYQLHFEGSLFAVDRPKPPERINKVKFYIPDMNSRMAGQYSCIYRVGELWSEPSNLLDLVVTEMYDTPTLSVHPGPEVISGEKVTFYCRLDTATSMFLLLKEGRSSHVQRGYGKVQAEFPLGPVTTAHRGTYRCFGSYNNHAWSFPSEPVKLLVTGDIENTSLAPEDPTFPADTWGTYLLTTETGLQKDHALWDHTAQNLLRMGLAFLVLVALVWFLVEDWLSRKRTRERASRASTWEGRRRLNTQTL
Experimental: Primary screen: Supematant (SN) of growing clones were tested in a primary screen by flow cytometry using a cell line expressing the human NKp46 construct at the cell surface.

Binder | EC50 of Daudi target cell lysis by NK cells (4-h 51Cr-release assay) [1] [picomolar] | binding result [2]
CD19-F18-NKp46-1 (bispecific antibody) chain 1: not shown chain 2: not shown chain 3: DIQMTQTTSSLSASLGDRVTISCRASQDISNYLNWYQQKPDGTVKLLIYYTSRLHSGVPSRFSGSGSGTDYSLTINNLEQEDIATYFCQQGNTRPWTFGGGTKLEIKASTKGPSVFPLAPSSKSTSGGTAALGCLVKDYFPEPVTVSWNSGALTSGVHTFPAVLQSSGLYSLSSVVTVPSSSLGTQTYICNVNHKPSNTKVDKRVEPKSCDKTH | ~1 | –
CD19-F20-NKp46-1 (bispecific antibody, human IgG1, kappa) chain 1: not shown chain 2: not shown chain 3: DIQMTQTTSSLSASLGDRVTISCRASQDISNYLNWYQQKPDGTVKLLIYYTSRLHSGVPSRFSGSGSGTDYSLTINNLEQEDIATYFCQQGNTRPWTFGGGTKLEIKASTKGPSVFPLAPSSKSTSGGTAALGCLVKDYFPEPVTVSWNSGALTSGVHTFPAVLQSSGLYSLSSVVTVPSSSLGTQTYICNVNHKPSNTKVDKRVEPKSCDKTH | ~1 | –
CD19-F19-NKp46-1 (bispecific antibody, human IgG1, kappa) chain 1: not shown chain 2: not shown chain 3: DIQMTQTTSSLSASLGDRVTISCRASQDISNYLNWYQQKPDGTVKLLIYYTSRLHSGVPSRFSGSGSGTDYSLTINNLEQEDIATYFCQQGNTRPWTFGGGTKLEIKASTKGPSVFPLAPSSKSTSGGTAALGCLVKDYFPEPVTVSWNSGALTSGVHTFPAVLQSSGLYSLSSVVTVPSSSLGTQTYICNVNHKPSNTKVDKRVEPKSCDKTH | ~1 | –
NKp46-3 (antibody, V domains shown, Mouse hybridoma antibody (Balb/c immunisation); also called anti-NKp46 (NKp46-3)) VH: EVQLQQSGPELVKPGASVKISCKTSGYTFTEYTMHWVKQSHGKSLEWIGGISPNIGGTSYNQKFKGKATLTVDKSSSTAYMELRSLTSEDSAVYYCARRGGSFDYWGQGTTLTVSS VL: DIVMTQSPATLSVTPGDRVSLSCRASQSISDYLHWYQQKSHESPRLLIKYASQSISGIPSRFSGSGSGSDFTLSINSVEPEDVGVYYCQNGHSFPLTFGAGTKLELK | – | binds
